{"source": "patent US20150110788A1", "about": "(GALAXY BIOTECH, published 2015)", "key": {"FGF2 [1]": {"target": "T1, FGF2 (UniProt P09038 143-288, limits assumed)", "T1 construct": "also called basic FGF; basic fibroblast growth factor", "T1 sequence (P09038 143-288 limits assumed)": "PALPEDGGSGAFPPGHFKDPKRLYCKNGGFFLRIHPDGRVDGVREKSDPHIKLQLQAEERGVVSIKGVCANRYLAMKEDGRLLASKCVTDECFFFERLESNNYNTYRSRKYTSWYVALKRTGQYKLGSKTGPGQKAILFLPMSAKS", "assay": "ELISA binding curves, FIG. 6B", "procedure": "(§1) Heparin (50 μg/ml) was bound to ELISA plates overnight and used to capture either VEGF or FGF2 (0.2 μg/ml) overnight, followed by 2% BSA for blocking."}, "VEGF [2]": {"target": "T2, VEGF (UniProt P15692-4 27-191, limits assumed)", "T2 construct": "also called vascular endothelial growth factor; VEGF-A", "T2 sequence (P15692 other isoform, or with tags, fused parts or gaps limits assumed)": "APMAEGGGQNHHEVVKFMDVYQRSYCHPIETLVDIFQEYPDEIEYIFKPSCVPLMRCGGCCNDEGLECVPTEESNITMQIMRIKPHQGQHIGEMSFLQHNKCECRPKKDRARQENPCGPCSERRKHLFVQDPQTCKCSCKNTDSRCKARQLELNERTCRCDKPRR", "assay": "bridging ELISA: VEGF captured on heparin-coated plate, antibody, then Flag-FGF2 and HRP-anti-Flag M2; signal needs binding to both VEGF and Flag-FGF2", "procedure": "(§2) Heparin (50 μg/ml) was bound to an ELISA plate overnight and used to capture VEGF (0.2 μg/ml) overnight, followed by 2% BSA for blocking. […] In principle, this assay should only detect bispecific antibody, because any detectable antibody must bind both to the VEGF on the plate in order to be captured and to Flag-FGF2 in solution in order to be detected."}, "VEGF [3]": {"target": "T2, VEGF", "assay": "ELISA: VEGF captured on heparin-coated plate, detected with HRP-goat-anti-human-IgG-Fc", "procedure": "as §1"}, "FGF2 [4]": {"target": "T1, FGF2", "assay": "ELISA: FGF2 captured on heparin-coated plate, detected with HRP-goat-anti-human-IgG-Fc", "procedure": "as §1"}, "Flag-FGF2": {"target": "T3, Flag-FGF2 (UniProt P09038 135-288, limits assumed)", "T3 construct": "Soluble detection reagent in the bridging ELISA; also called Flag peptide linked to FGF2; not shown: Flag peptide", "T3 sequence (P09038 135-288 limits assumed)": "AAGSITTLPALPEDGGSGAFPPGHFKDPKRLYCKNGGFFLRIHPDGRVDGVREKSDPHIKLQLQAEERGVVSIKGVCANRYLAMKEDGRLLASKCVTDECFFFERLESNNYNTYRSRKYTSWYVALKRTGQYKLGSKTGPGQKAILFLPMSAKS", "assay": "bridging ELISA: VEGF captured on heparin-coated plate, antibody, then Flag-FGF2 and HRP-anti-Flag M2; signal needs binding to both VEGF and Flag-FGF2", "procedure": "as §2"}}}
{"binder": "HuGAL-F2 (antibody, V domains shown, also called humanized GAL-F2) VH: EVQLVQSGAEVKKPGSSVKVSCKASGYTFTNYVINWVRQAPGQGLEWIGYNDPYNDVSKYNEKFKGRATITSDKSTSTAYMELSSLRSEDTAVYYCAKEGGGKYVYAMDSWGQGTTVTVSS VL: DIQMTQSPSSLSASVGDRVTITCKASQSVSSDVGWYQQKPGKAPKLLIYSGSNRYSGVPSRFSGSGSGTDFTLTISSLQPEDFATYYCQQDYYSPWTFGQGTKVEIK", "values": [{"measurement": "binding result", "setting": "FGF2 [1]", "result": "binds"}, {"measurement": "binding result", "setting": "VEGF [2]", "result": "no binding (tested: 1 µg/ml)"}]}
{"binder": "X-Ava/F2 (bispecific antibody, human IgG1, kappa, also called bispecific antibody X-Ava/F2; X-Ava/F2 mAb) light 1: DIQMTQSPSSLSASVGDRVTITCKASQSVSSDVGWYQQKPGKAPKLLIYSGSNRYSGVPSRFSGSGSGTDFTLTISSLQPEDFATYYCQQDYYSPWTFGQGTKVEIKRTVAAPSVFIFPPSDEQLKSGTASVVCLLNNFYPREAKVQWKVDNALQSGNSQESVTEQDSKDSTYSLSSTLTLSKADYEKHKVYACEVTHQGLSSPVTKSFNRGEC heavy 1: not shown light 2: DIQMTQSPSSLSASVGDRVTITCSASQDISNYLNWYQQKPGKAPKVLIYFTSSLHSGVPSRFSGSGSGTDFTLTISSLQPEDFATYYCQQYSTVPWTFGQGTKVEIKSSASTKGPSVFPLAPSSKSTSGGTAALGCLVKDYFPEPVTVSWNSGALTSGVHTFPAVLQSSGLYSLSSVVTVPSSSLGTQTYICNVNHKPSNTKVDKRVEPKSC heavy 2: not shown", "values": [{"measurement": "fold difference of EC50 against Avastin®", "setting": "VEGF [3]", "result": "≤ 2", "unit": "fold"}, {"measurement": "fold difference of EC50 against HuGAL-F2", "setting": "FGF2 [4]", "result": "≤ 4", "unit": "fold"}]}
{"binder": "Avastin® (bevacizumab) (antibody, V domains shown, Humanized anti-VEGF mAb, bivalent; also called Fab-12; F(ab)-12) VH: EVQLVESGGGLVQPGGSLRLSCAASGYTFTNYGMNWVRQAPGKGLEWVGWINTYTGEPTYAADFKRRFTFSLDTSKSTAYLQMNSLRAEDTAVYYCAKYPHYYGSSHWYFDVWGQGTLVTVSS VL: DIQMTQSPSSLSASVGDRVTITCSASQDISNYLNWYQQKPGKAPKVLIYFTSSLHSGVPSRFSGSGSGTDFTLTISSLQPEDFATYYCQQYSTVPWTFGQGTKVEIKR", "values": [{"measurement": "binding result", "setting": "Flag-FGF2", "result": "no binding (tested: 1 µg/ml)"}]}
